Biological target: T1, SARS-COV-2 S protein, S867-881 peptide with residue 3 (Q) of SEQ ID NO: 13 replaced with alanine peptide on … (human)
T1 peptide: DEMIAAYTSALLAGT
Assay: activation reporter or marker

B1: Clone 1 (TCR-017) (TCR)
alpha TRAV12-1 TRAJ12 CDR3: CVVNRGSSYKLIF
beta TRBV11-2 TRBJ2-7 CDR3: CASSQTYEQYF
- binding result: no recognition
